Entries after “also recorded” stand apart in the source; their conditions may differ.
Legend:
[1] = target: T1, Bcl-2 (Homo sapiens, UniProt P10415); experiment: Co-IP assay of TR3 mutants with Bcl-2 in HEK293T cells; format: binding; conditions: GFP fusions co-transfected with Bcl-2 in HEK293T cells
T1 construct: expressed in transfected cells; host or cells: HEK293T
Description: TR3/Bcl-2 interaction assays—Reporter gene assays using NurRE-tk-CAT in CV-1 cells, and GST pull-down assay were described previously (Li, et al. 2000 Science 289, 1159-1164). For the mammalian two-hybrid assays, CV-1 cells were co-transfected with pcDNA-Gal4TAD-TR3 or pcDNA-Gal4TAD-TR3/ΔDBD and pcDNA-Gal4DBD-Bcl-2/ΔTM along with a luciferase reporter gene driven by four copies of the Gal4-binding site. The cells were harvested and reporter gene activity was measured. For Co-IP assays, HEK293T cells were transiently transfected with various expression plasmids using a modified calcium phosphate precipitation method (Wu et al, 1997) in the presence of caspase inhibitors (zVAD-fmk) to prevent degradation of TR3 protein due to apoptosis. Cells were suspended in lysis buffer (50 mM Tris-HCl, PH7.4; 150 mM NaCl; 20 mM EDTA; 1% NP-40; 1 mM PMSF; 50 μg/ml Leupeptin; […]; 0.1 mM Na3VO4; and 1 mM DTT). Cells extracts were cleared by incubation with the Protein A/G plus Agarose beads (Santa Cruz) and then incubated with appropriate antibody and 30 μl of Protein A or G plus Agarose beads overnight at 4° C. Beads were then washed and boiled in Laemmli gel-loading solution before performing SDS-PAGE/immunoblotting using the following polyclonal or monoclonal antibodies: monoclonal mouse anti-GFP (Medical and Biological Laboratories), monoclonal mouse anti-HA (Roche Molecular Biochemicals), monoclonal mouse anti-FLAG (Sigma), monoclonal mouse anti-Myc (Santa Cruz), polyclonal rabbit anti-TR3 (Active Motif), or monoclonal mouse anti-Bcl-2 (Santa Cruz). Immunoreactive products were detected by chemiluminescence with an enhanced chemiluminescence system (ECL) (Amersham).
TR3/ΔDBD, which can constitutively reside on mitochondria, was also analyzed by co-immunoprecipitation (Co-IP) assay for its interaction with Bcl-2. GFP-TR3/ΔDBD was transfected into human embryonic kidney cell line 293T alone or together with a Bcl-2 expression vector. The expressed GFP-TR3/ΔDBD mutant protein as then precipitated by using either anti-Bcl-2 antibody or control IgG and detected by western blotting using anti-GFP antibody. The same membranes were also blotted with anti-Bcl-2 antibody to determine precipitation specificity and efficiency. Input represents 10% of total cell extract used in the precipitation assays.
Several TR3 mutants were analyzed to determine the domain of TR3 which interacts with Bcl-2. The TR3 mutants are schematically represented in FIG. 1. A Co-IP assay was performed, as described above. […] Cell extracts were prepared and incubated with anti-Bcl-2 antibody or control IgG for Co-IP assays. Lysates were immunoprecipitated by using either polyclonal rabbit anti-Bcl-2 antibody or control IgG. Cell lysates and immunoprecipitates were examined by immunoblotting using anti-GFP antibody. The same membranes were also blotted with anti-Bcl-2 antibody (Santa Cruz) to determine IP specificity and efficiency. […] This Co-IP was specific because Bcl-2 co-transfection was necessary. […] Thus, the DC1 region in the TR3 LBD is involved in the Bcl-2 interaction.
To further determine the interaction of DC1 with Bcl-2, a region of hydrophobic amino acids ([…]—SEQ ID NO: 1) was deleted from TR3/ΔDBD, and the resulting mutant (TR3/ΔDBD/Δ471-488) was analyzed for its interaction with Bcl-2. TR3/ΔDBD/[…], with eighteen amino acids from 471 to 488 in the DC1 region deleted from TR3/ΔDBD, TR3/ΔDBD/I483A (with Ile483 replaced with Ala) and TR3/ΔDBD/L487A (with Leu487 replaced with Ala) were analyzed for their interaction with Bcl-2 by in vivo Co-IP assay as described above.

[2] = test system: 293T cells; experiment: DAPI apoptosis assay in 293T cells; format: cell-based, human; conditions: 293T, co-expressed with Bcl-2, 36 h, DAPI
Description: Apoptosis assays—For nuclear morphological change analysis, cells were trypsinized, washed with PBS, fixed with 3.7% paraformaldehyde, and stained with DAPI (4,6-diamidino-2-phenylindole) (50 μg/ml) to visualize the nuclei by UV-microscopy. The percentages of apoptotic cells were determined by counting 300 GFP-positive cells, scoring cells having nuclear fragmentation and/or chromatin condensation.
DAPI staining was used to study the apoptotic effect of TR3/Bcl-2 interaction. 293T cells were transfected with GFP-TR3/ΔDBD alone or together with Bcl-2. After 36 h, nuclei were stained by DAPI and nuclear fragmentation and chromatin condensation were identified. Cells were also stained with anti-Bcl-2 antibody, followed by TRITC-conjugated secondary antibody (Sigma). Bcl-2 and GFP-ΔDBD expression and nuclear morphology were visualized by fluorescence microscopy, and the two images were overlaid. […] But, when Bcl-2 was cotransfected, a significant amount of transfected cells underwent apoptosis. For example, approximately 4% of cells transfected with either TR3/ΔDBD or Bcl-2 were apoptotic, compared to 35% of cell transfected with both. […] Cotransfection of Bcl-2, however, prevented BAX-induced apoptosis in these cells (see FIG. 4). The effect of Bcl-2 on apoptotic potential of TR3/ΔDBD in lung cancer and breast cancer cells was also investigated.
To characterize the pro-apoptotic mechanism of Bcl-2 in the setting of TR3-induced apoptosis, various TR3 mutants and Bcl-2 mutants were co-expressed in HEK293T cells. TR3 mutants were transfected into 293T cells together with or without Bcl-2 expression vector or with Bcl-2 mutants. After 36 h, nuclei were stained by DAPI. Cells displaying nuclear condensation or fragmentation were scored.
The role of various Bcl-2 mutants in mediating apoptosis induction by TR3 was next studied. […] The hydrophobic cleft of Bcl-2 is involved in its anti-apoptotic effect through its interaction with BH3 domain of pro-apoptotic molecules (Reed 1997 Semin Hematol 34:9-19; Reed 1997 Nature 387:773-776). To investigate whether the BH3 domain-binding motif of Bcl-2 is also involved in its apoptotic effect, various Bcl-2 mutants including Y108K Bcl-2, with a mutation in the BH3 domain-binding cleft, L137A, and G145A (all with impaired interaction with bax), were cotransfected together with TR3/ΔDBD. […] Bcl-2 mutations (Y108K, L137A, G145A) that impaired its interaction with Bax, abolished the Bcl-2 inhibitory effect on Bax-induced apoptosis, consistent with previous observations that the hydrophobic cleft of Bcl-2 is essential for its anti-apoptotic effect. […] Thus, an intact BH3 domain-binding motif in Bcl-2 is involved in its pro-apoptotic effect. In contrast to the inhibitory effect of Bcl-2 on Bax-induced apoptosis TR3/ΔDBD-induced apoptosis was augmented by co-expression of Bcl-2 in HEK293T cells.
Mitochondrial targeting of TR3 has been previously identified as being involved in its apoptotic effect. To study whether mitochondrial localization of the TR3/ΔDBD/Bcl-2 complex was involved in their apoptotic effect, TR3/ΔDBD was cotransfected with Bcl-2/ATM, a Bcl-2 lacking its transmembrane domain. […] Thus, mitochondrial localization of TR3/ΔDBD/Bcl-2 complex is involved in this apoptotic effect.

[3] = test system: 293T cells; experiment: Confocal microscopy of mitochondrial targeting in 293T cells; format: cell-based, human
Description: Subcellular localization assays—Cells were seeded onto cover-slips in 6-well plates overnight, then transiently transfected with GFP-fusion expression plasmids. After 16 hours, cells were washed with PBS and fixed in 4% paraformaldehyde. For mitochondrial staining, cells were then incubated with anti-Hsp60 goat IgG (Santa Cruz, USA), followed by anti-goat IgG conjugated with Cy3 (Sigma). For cyt c staining, cells were incubated with monoclonal anti-cyt c IgG (PharMingen), followed by anti-mouse IgG conjugated with Cy5 (Amersham). Fluorescent images were collected and analyzed using a MRC-1024 MP laser-scanning confocal microscope (Bio-Rad). Subcellular fractionation assays were performed as described (Li, et al. 2000 Science 289:1159-1164). Briefly, cells (1×10^7 cells) suspended in 0.5 ml hypotonic buffer (5 mM Tris-HCl, pH 7.4, 5 mM KCl, 1.5 mM MgCl2, 0.1 mM EGTA, pH 8.0, and 1 mM DTT) were homogenized and cell extracts were centrifuged at 500×g for 5 min. The resulting supernatant was centrifuged at 10,000×g for 30 min at 4° C. to obtain the HM fraction. HM fraction was resuspended in 100 μl lysis buffer (10 mM Tris, pH 7.4, 150 mM NaCl, 1% Triton X-100, 5 mM EDTA, pH 8.0) for immunoblotting analysis.
A. confocal microscopy—First an experiment was performed to determine whether the deletion mutant TR3/ΔDBD targets mitochondria via its interaction with Bcl-2. In confocal microscopy analysis, GFP-TR3/ΔDBD and Bcl-2 were transfected into 293T cells alone or together. […] Bcl-2, TR3/ΔDBD and mitochondria (Hsp60) were visualized using confocal microscopy and the three images were overlaid.

[4] = test system: LNCaP cells; experiment: Dominant-negative Bcl-2/1-90 in LNCaP cells; format: cell-based
Description: The next approach involved using a fragment of Bcl-2 consisting of the TR3 interaction domain (loop region) to identify whether it could act in a dominant-negative fashion to inhibit TR3 mitochondrial targeting in LNCaP cells. Cells transiently transfected with the GFP-Bcl-2/1-90 mutant comprising of the first 90 N-terminal amino acids were treated with TPA to induce expression of TR3 and mitochondrial targeting of the endogenous TR3. […] Thus, Bcl-2/1-90 inhibits TR3 mitochondrial targeting, probably by competing with endogenous Bcl-2 for binding to TR3.
The effect of inhibiting endogenous Bcl-2 expression on the TR3-dependent apoptosis in MGC80-3 cells was next analyzed. […] However, 3-Cl-AHPC-induced apoptosis was suppressed by more than half (about 60%) in Bcl-2 siRNA-transfected cells. Similar results were obtained in H460 lung cancer cells. […] Thus, Bcl-2 can manifest a pro-apoptotic phenotype in settings where TR3 is expressed and targets to mitochondria.

T1 sequence (P10415 whole entry, the tested form may be a part): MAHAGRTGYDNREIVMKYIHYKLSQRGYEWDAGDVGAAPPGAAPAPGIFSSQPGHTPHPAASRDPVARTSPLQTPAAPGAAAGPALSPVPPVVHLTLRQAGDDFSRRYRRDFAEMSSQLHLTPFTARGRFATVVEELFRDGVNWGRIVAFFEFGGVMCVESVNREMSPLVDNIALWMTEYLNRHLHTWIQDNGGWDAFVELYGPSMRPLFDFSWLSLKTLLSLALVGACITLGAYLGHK

Row | Molecule | interaction with Bcl-2 (Co-IP) [1] | apoptosis [2] | apoptosis ([2]; listed as TR3/ΔDBD/ADC1) | colocalization with mitochondria [3] | TR3-dependent apoptosis induced by TPA and 3-Cl-AHPC ([4]; LNCaP cells) | mitochondrial targeting of endogenous TR3 ([4]; LNCaP cells treated with TPA)
1 | DC1: C-terminal fragment of TR3 (467-536 aa), 69 amino acids (protein, listed as Homo sapiens) GLVLHRLQCARGFGDWIDSILAFSRSLHSLLVDVPAFACLSALVLITDRHGLQEPRRVEELQNRIASCLK | strongly interact with Bcl-2 | potently induced apoptosis | – | – | – | –
2 | TR3/ΔDBD/ΔDC1: TR3/ΔDBD with DC1 deleted (protein, left off: large carriers; small tags and cut ends, TR3/ΔDBD with DC1 deleted) MPCIQAQYGTPAPSPGPRDHLASDPLTPEFIKPTMDLASPEAAPAAPTALPSFSTFMDGYTGEFDTFLYQLPGTVQPCSSASSSASSTSSSSATSPASASFKFEDFQVYGCYPGPLSGPVDEALSSSGSDYYGSPCSAPSPSTPSFQPPQLSPWDGSFGHFSPSQTYEHVAAVAGEPQPASCLSRLLGKLPELRTLCTQGLQRIFYLKLEDLVPPPPIIDKIFMDTLPF | largely abolished the interaction | failed to confer the apoptotic potential of Bcl-2 | did not result in apoptosis | – | – | –
3 | TR3/ΔDBD/L487A: TR3/ΔDBD with Leu487 replaced with Ala (protein, left off: large carriers; small tags and cut ends, TR3/ΔDBD with Leu487 replaced with Ala) MPCIQAQYGTPAPSPGPRDHLASDPLTPEFIKPTMDLASPEAAPAAPTALPSFSTFMDGYTGEFDTFLYQLPGTVQPCSSASSSASSTSSSSATSPASASFKFEDFQVYGCYPGPLSGPVDEALSSSGSDYYGSPCSAPSPSTPSFQPPQLSPWDGSFGHFSPSQTYLVLHRLQCARGFGDWIDSIAAFSRSLHSLLVDVPAFACLSALVLITDRHGLQEPRRVEELQNRIASCLKEHVAAVAGEPQPASCLSRLLGKLPELRTLCTQGLQRIFYLKLEDLVPPPPIIDKIFMDTLPF | significantly impaired the interaction; also recorded: largely abolished the interaction | failed to confer the apoptotic potential of Bcl-2 | – | failed to colocalize with mitochondria | – | –
4 | TR3/ΔDBD/I483A: TR3/ΔDBD with Ile483 replaced with Ala (protein, left off: large carriers; small tags and cut ends, TR3/ΔDBD with Ile483 replaced with Ala) MPCIQAQYGTPAPSPGPRDHLASDPLTPEFIKPTMDLASPEAAPAAPTALPSFSTFMDGYTGEFDTFLYQLPGTVQPCSSASSSASSTSSSSATSPASASFKFEDFQVYGCYPGPLSGPVDEALSSSGSDYYGSPCSAPSPSTPSFQPPQLSPWDGSFGHFSPSQTYLVLHRLQCARGFGDWADSILAFSRSLHSLLVDVPAFACLSALVLITDRHGLQEPRRVEELQNRIASCLKEHVAAVAGEPQPASCLSRLLGKLPELRTLCTQGLQRIFYLKLEDLVPPPPIIDKIFMDTLPF | largely abolished the interaction | failed to confer the apoptotic potential of Bcl-2 | – | – | – | –
5 | Bcl-2/1-90: Bcl-2 mutant comprising the first 90 N-terminal amino acids (protein, UniProt P10415 1-90, looked up, fragment, GFP fusion, Bcl-2 mutant comprising the first 90 N-terminal amino acids) MAHAGRTGYDNREIVMKYIHYKLSQRGYEWDAGDVGAAPPGAAPAPGIFSSQPGHTPHPAASRDPVARTSPLQTPAAPGAAAGPALSPVP | – | – | – | – | suppressed TR3-dependent apoptosis | TR3 failed to target mitochondria

Reference: patent US8273705B2, “Conversion of apoptotic proteins” (The Burnham Institute, priority 2002, dated 2012)
